experiment: soluble on expression in E. coli; label from the status in PepcDB or PDB records

| Sequence | soluble on expression in E. coli |
| --- | --- |
| MGSSHHHHHHDYDIPTTENLYFQGHMATNLKSTAKLVKPIQYDEVIEVERIFADPAFIEQHRQRILASFKDAKESALYHELTHIVIKDNLFSCAMNAIVGYFEFNIDEAELKNVMEGLKRDVIQGAEDNTVQAIAEKIIKKALVFNHLQKEWKVEITDEVVKNVISLYYEKTNQSVREYLDDKQKFEGVRTALLEERMVLETINHFKFHFNLTGQLPN | soluble |
| MGSSHHHHHHGGTGENLYFQGGSGSSSSSSLPAAASLPATHATPPGALSSSVVSSSAPMCTHLPLPPPPPQPQEQQANKRSLRNDTHAGQMLREQQQMMEQLMSTGLVQAADLLEFGFSAAELRAAGLHLPPPHHRAGEQTKGGLEAAQAERMADAHGEDSRRRGVPRKRAWCDDAAQARPQKNERVAPSPVVSGAAATTLSAAETTREPQTVAKSVATPALLSEETRARSLHAAKLVEQTQSLRRHRGDQDCARWLCYDDTDDEEVSSTASTGTSSGEATAALASMARAAETLPKARCNTALAFSGLDVAVVREIAQRLQDESGHDASVESRRTREYVESRENGNTPYM | not soluble |
| MGSSHHHHHHGKTIFVIVPTNEEQVAFLEALAKQDELNFDWQNPPTEPGQPVVILIPSDMVEWFLEMLKAKGIPFTVYVEEGGSENLYFQGGGGGGAQCVRRLVLAATLAAAVALLLCTSSAPVARAAGTGDFTAAQRTNTLAVLQAFGRAIPKLGEKWAGNDFCSWEAVLCNAPDVYVSGISPTYAGTLPEMPVNVDYRHVVIKQLDFSEMGPGLSGTLPASWHSMTSLESLSIEKCESISGSVPPEWGSMTSLSVLNLRGTGISGTLPPQWSGMSKARSLQLQDCDLSGSLPSSWSAIPMLASVSLKGNKFCGVCRTRGIRRLVLLWTSRTSTRAATAWLLRTAQRPPLSPPPRQRPPRTSLTFPLRRGPRLSRLPQPALRHRLNPQPPLRHRLNPRPLLPQQTRRLLHQRRSARWMGVRCARGTPLRGARGAVRTTS | not soluble |
| MGSSHHHHHHGKTIFVIVPTNEEQVAFLEALAKQDELNFDWQNPPTEPGQPVVILIPSDMVEWFLEMLKAKGIPFTVYVEEGGSENLYFQGGGGGGFVPNWYQHPDPALKYADDMEVYDYYQQYEAAKKAAREASTSSKKTAATSPALPRAKPHVTIA | soluble |
| MGSSHHHHHHGKTIFVIVPTNEEQVAFLEALAKQDELNFDWQNPPTEPGQPVVILIPSDMVEWFLEMLKAKGIPFTVYVEEGGSENLYFQGGGGGGTCMMGLEIRPKVVSFAQEKALALRQENAASLTQHYRNVWFEQMNVMKFGSNCFTKGQLSRLFFCYPDPHWKRKNIRRRIISPGLVQEYAYWLRHGGLVYTVSDVAELEEWMVQCLDDSPLFRRLAEAELCTPEHKQVLEIVTGASEDAQRTARKGLQKHFAVHMRI | not soluble |
| MGSSHHHHHHSSGENLYFQGHMDVLASGEKSRMLFERTKELFPGGVNSPVRAAVKPYPFYVKRGEGAYLYTVDGARIVDLVLAYGPLILGHKHPRVLEAVEEALARGWLYGAPGEAEVLLAEKILGYVKRGGMIRFVNSGTEATMTAIRLARGYTGRDLILKFDGCYHGSHDAVLVAAGSAAAHYGVPTSAGVPEAVARLTLVTPYNDVEALERVFAEYGDRIAGVIVEPVIANAGVIPPRREFLAALQRLSRESGALLILDEVVTGFRLGLEGAQGYFNIEGDIIVLGKIIGGGFPVGAVAGSREVMSLLTPQGKVFNAGTFNAHPITMAAGLATLKALEEEPVYSVSREAAKALEEAASEVLDRTGLPYTINRVESMMQLFIGVEEVSNAAQARKADKKFYVKLHEEMLRRGVFIAPSNLEAVFTGLPHQGEALEIAVEGLRSSLKTVLGS | soluble |
| MGSSHHHHHHSSGLVPRGSHADYEVVHDTFEVNFDGWCNLGVDTYLTAVENEGNNGTRGMMVINRSSASDGAYSEKGFYLDGGVEYKYSVFVKHNGTGTETFKLSVSYLDSETEEENKEVIATKDVVAGEWTEISAKYKAPKTAVNITLSITTDSTVDFIFDDVTITRKGMAEANTVYAANAVLKDMYANYFRVGSVLNSGTVNNSSIKALILREFNSITCENEMKPDATLVQSGSTNTNIRVSLNRAASILNFCAQNNIAVRGHTLVWHSQTPQWFFKDNFQDNGNWVSQSVMDQRLESYIKNMFAEIQRQYPSLNLYAYDVVNAAVSDDANRTRYYGGAREPGYGNGRSPWVQIYGDNKFIEKAFTYARKYAPANCKLYYNDYNEYWDHKRDCIASICANLYNKGLLDGVGMQSHINADMNGFSGIQNYKAALQKYINIGCDVQITELDISTENGKFSLQQQADKYKAVFQAAVDINRTSSKGKVTAVCVWGPNDANTWLGSQNAPLLFNANNQPKPAYNAVASIIPQSEWGDGNNPA | soluble |
| MGSSHHHHHHSSGLVPRGSHELGGRVSGSLAWRVARGETGLERKEILFIPSENEKISKQFHLRYDIVRDRYIRVSDNNTNISGWENGVWKMESIFRKVEKDWNMVYLARKEGSSFAYISWKFECGSAGLKVDTVSIRTSSQSFESGSVRWKLRSETAQVNLLGDKNLRSYNDFSGATEVTLEAELSRGDGDVAWQHTQLFRQSLNDSGENGLEIIITFNDL | soluble |
| MGSSHHHHHHSSGLVPRGSHMETLCQRLNVCQDKILTHYENDSTDLRDHIDYWKHMRLECAIYYKAREMGFKHINHQVVPTLAVSKNKALQAIELQLTLETIYNSQYSNEKWTLQDVSLEVYLTAPTGCIKKHGYTVEVQFDGDICNTMHYTNWTHIYICEEASVTVVEGQVDYYGLYYVHEGIRTYFVQFKDDAEKYSKNKVWEVHAGGQVILCPTSVFS | soluble |
| MGSSHHHHHHSSGLVPRGSHMGLQDYQRLHKESIEDPAKFFGSKATQFLNWSKPFDKVFIPDPKTGRPSFQNNAWFLNGQLNACYNCVDRHALKTPNKKAIIFEGDEPGQGYSITYKELLEEVCQVAQVLTYSMGVRKGDTVAVYMPMVPEAIITLLAISRIGAIHSVVFAGFSSNSLRDRINDGDSKVVITTDESNRGGKVIETKRIVDDALRETPGVRHVLVYRKTNNPSVAFHAPRDLDWATEKKKYKTYYPCTPVDSEDPLFLLYTSGSTGAPKGVQHSTAGYLLGALLTMRYTFDTHQEDVFFTAGDIGWITGHTYVVYGPLLYGCATLVFEGTPAYPNYSRYWDIIDEHKVTQFYVAPTALRLLKRAGDSYIENHSLKSLRCLGSVGEPIAAEVWEWYSEKIGKNEIPIVDTYWQTESGSHLVTPLAGGVTPMKPGSASFPFFGIDAVVLDPNTGEELNTSHAEGVLAVKAAWPSFARTIWKNHDRYLDTYLNPYPGYYFTGDGAAKDKDGYIWILGRVDDVVNVSGHRLSTAEIEAAIIEDPIVAECAVVGFNDDLTGQAVAAFVVLKNKSSWSTATDDELQDIKKHLVFTVRKDIGPFAAPKLIILVDDLPKTRSGKIMRRILRKILAGESDQLGDVSTLSNPGIVRHLIDSVKL | soluble |
| MGSSHHHHHHSSGLVPRGSHMKNYARISCTSRYVPENCVTNHQLSEMMDTSDEWIHSRTGISERRIVTQENTSDLCHQVAKQLLEKSGKQASEIDFILVATVTPDFNMPSVACQVQGAIGATEAFAFDISAACSGFVYALSMAEKLVLSGRYQTGLVIGGETFSKMLDWTDRSTAVLFGDGAAGVLIEAAETPHFLNEKLQADGQRWAALTSGYTINESPFYQGHKQASKTLQMEGRSIFDFAIKDVSQNILSLVTDETVDYLLLHQANVRIIDKIARKTKISREKFLTNMDKYGNTSAASIPILLDEAVENGTLILGSQQRVVLTGFGGGLTWGSLLLTLEF | soluble |
| MGSSHHHHHHSSGLVPRGSHMLKFDVNTSAVQVLIEHIGNLDRAYEFAERCNEPAVWSQLAKAQLQKGMVKEAIDSYIKADDPSSYMEVVQAANTSGNWEELVKYLQMARKKARESYVETELIFALAKTNRLAELEEFINGPNNAHIQQVGDRCYDEKMYDAAKLLYNNVSNFGRLASTLVHLGEYQAAVDGARKANSTRTWKEVCFACVDGKEFRLAQMCGLHIVVHADELEELINYYQDRGYFEELITMLEAALGLERAHMGMFTELAILYSKFKPQKMREHLELFWSRVNIPKVLRAAEQAHLWAELVFLYDKYEEYDNAIITMMNHPTDAWKEGQFKDIITKVANVELYYRAIQFYLEFKPLLLNDLLMVLSPRLDHTRAVNYFSKVKQLPLVKPYLRSVQNHNNKSVNESLNNLFITEEDYQALRTSIDAYDNFDNISLAQRLEKHELIEFRRIAAYLFKGNNRWKQSVELCKKDSLYKDAMQYASESKDTELAEELLQWFLQEEKRECFGACLFTCYDLLRPDVVLETAWRHNIMDFAMPYFIQVMKEYLTKVDKLDASESLRKEEEQATETQPIVYGQPQLMLTAGPSVAVPPQAPFGYGYTAPAYGQPQPGFGYSM | soluble |
| MGSSHHHHHHSSGLVPRGSHMQIHTLTIRHGRSDPETVRSLLGQDQVLVVDYDAIHHHVINTAEYTYLSHMFDIIVLNLSGKLNDIIDTIMAGAAMVVIDPSVQEKRLREFFDITENIAMPYRGDGHSEAFSQLGGQYFVTDREIGYPFKLAYSTTDISGDRYIRVLDFPQDISDMIFERA | soluble |
| MGSSHHHHHHSSGLVPRGSHMRQLTEEETKVVFEKLAGYIGRNISFLVDNKELPHVFRLQKDRVYYVPDHVAKLATSVARPNLMSLGICLGKFTKTGKFRLHITSLTVLAKHAKYKIWIKPNGEMPFLYGNHVLKAHVGKMSDDIPEHAGVIVFAMNDVPLGFGVSAKSTSESRNMQPTGIVAFRQADIGEYLRDEDTLFT | soluble |
| MGSSHHHHHHSSGLVPRGSHMSLKHFLNTQDWSRAELDALLTQAALFKRNKLGSELKGKSIALVFFNPSMRTRTSFELGAFQLGGHAVVLQPGKDAWPIEFNLGTVMDGDTVEHIAEVARVLGRYVDLIGVRAFPKFVDWSKDREDQVLKSFAKYSPVPVINMETITHPCQELAHALALQEHFGTPDLRGKKYVLTWTYHPKPLNTAVANSALTIATRMGMDVTLLCPTPDYILDERYMDWAAQNVAESGGSLQVSHDIDSAYAGADVVYAKSWGALPFFGNWEPEKPIRDQYQHFIVDERKMALTNNGVFSHCLPLRRNVKATDAVMDSPNCIAIDEAENRLHVQKAIMAALVGQSRP | soluble |
| MGSSHHHHHHSSGLVPRGSHMSLYREVDAFRVDDERRRVPEKVVNDIEVRIRINGGMEQRFTASPQALEEFATGYLLGEGLVDSVDDIVSIEISDNIIDAEIESGDLDIRRELVMGSDCFGGWRQRVEMVGPVDSDLRVRADDIFLAFKRMVKSAVVWRMTGGTHVAALVTGDEFRVFEDVSRHVAVDKVIGSGAMDGVNFRESFIVYSGRMPADMLIKVVRAGVPIIASNAAPTSSGYDAAQRTGLTMLGFVRGKRFNIYSHPERII | soluble |
| MGSSHHHHHHSSGRENLYFQGMRHKIRLIDFILLRFIEERMKVARDVAKEKKKTDSPIVIRDIEEQKIKEILDRTDLNPVRMRRIFEEIMKLAKEEEYRLLGISKTVAVLGPMGSFSDEMAMKLIGSRIPLKYCSTTDEIIEMVEKGEVDYGIVPIENSTYGTVIPVLDALLNHEVEVFGEAKLEIHHCLVAKKKLDLKEIKRIYSHPQAISQSLGFINTYLSHAEIRYTSSTSDAVNLLDDESAAIMSESAAKMYGLLILRRSIQDLKEKNITRFYIIRRKTGKMEGKYTSLFFGVQDRPGSLKAVLDIFASRGINLRKLESRPARTFLGDYVFFVEVEAPLKEEDIRDLERVTAFYKIIGVFDEVEELDVFK | soluble |
| MGSWGMEALESDEGLDLINWVEEQLQDDSTFDAESIVQRLSQHEDLFGFQGDEEFLYDNNVIGLVELIIQKAAGEKITSSKQIDQLDSYRLTSIFSKKLQGRLQTIDDTHEWIMLFEGRAREKAKAYLIEITDKLRVVKTTA | soluble |
| MGTIKIVTDSSITIEPELIKALDITVVPLSVMIDSKLYSDNDLKEEGHFLSLMKASKSLPKTSQPPVGLFAETYENLVKKGVTDIVAIHLSPALSGTIEASRQGAEIAEAPVTVLDSGFTDQAMKFQVVEAAKMAKAGASLNEILAAVQAIKSKTELYIGVSTLENLVKGGRIGRVTGVLSSLLNVKVVMALKNDELKTLVKGRGNKTFTKWLDSYLAKNSHRPIAEIAISYAGEASLALTLKERIAAYYNHSISVLETGSIIQTHTGEGAFAVMVRYE | soluble |

From the DeepSol protein solubility set
